12 sequences from a protein production outcome set (Wang et al. 2014) can be followed below.

The data set in a line: label from the status in PepcDB records.
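Further: failed if final PepcDB status was selected cloned or expressed and not failed if soluble or beyond.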

Consider “MKKGLTFSITSAALFFGMNHVASADQIHTVKEDAKLTDIAQTFATTTTEIQNLNHLQNRDYVQVGETIVLPDSDIVEVKDGDTIKAIAERHQMTMNQLYQLNPNLGEVIYPGQLVAVSEKGSAHLNNQLQQIFNSHEAVQPTAQINDDERNKAENNTIRNVRTSGNITPSATQTWQNNDYSASDRQQVSNTTANEQVTSNYQYSPVSHASNGSNYYDWGQCTYYAFDRRQQLGKSVGNLWGNANNWASAAQQSGYQVNNTPEVGAIFQSTAGNYGHVGVVESKNADGSIVVSEMNWQGVGQKSYRTIHNTGQYNYIHLEHHHHHH”, for which the protein production result is on record as “failed”.

For “MKKGYMYIALTTIIFSTMEIALKLVSKSFNPIQLNFTRFFIGGLFLVPFALNTLHKRHLSISTKDLRFFALLGLLGTVISMSLYQLAVQNTKASVVAVLFSCNPVFVTILAFFLLREAIHKNNIAALILEVIGTIVIIDPLNTKLSILGLALTIASTLIFAAYGVFGKKKCAKYGGIVVTCFGFLFGSIEMLVLIGITHITPIANLFSSNGIAIFSNIPLFTGYSLKNLPLMCFICLINTGAGFACYFKAMEETSAQTTSLVFFFKPILAPILALILLHEIIPVNMIIGILFILAGSISSILPELLAQRQTKLEKTA”, the protein production result is “failed”.

With “MKKIATATIATAGIATFAFAHHDAQAAEQNNDGYNPNDPYSYSYTYTIDAEGNYHYTWKGNWSPDRVNTSYNYNNYNNYNYYGYNNYSNYNNYSNYNNYNNYQSNNTQSQRTTQPTGGLGASYSTSSSNVHVTTTSAPSSNGVSLSNARSASGNLYTSGQCTYYVFDRVGGKIGSTWGNANNWANAAARSGYTVNNSPAKGAILQTSQGAYGHVAYVEGVNSNGSIRVSEMNYGHGAGVVTSRTISASQAASYNYIHLEHHHHHH”, the protein production entry is reported as “failed”.

As to “MKKIFVIITTLLAVAIIIGSIITVVFSQRQAQTFKIQQQQFVKKPIPTLFLHGFGGSANSEKFMVKQAEKRGVTKDIITAYVSKDGAVTFKGKLRKDAVNPIVKIELENNRQGYLDKNAAWFKNVLTKLQSEYNFDKFNFVGHSMGNLTFAQYMMTYGNDKSLPQLNKQVNIAGTFNGVLNMNEDVNEITVDKDGKPSRMNQPYQQLRVLKDIYKGKGIEVLNIYGDLKDGTHSDGRVSNSSSKSLKYLLGNSPKSYRESKYEGEPAQHSQLHENENVANELIDFLWKK”, the protein production entry was “failed”.

Turning to “MKKIGILTSGGDCGGLNAVIKGAALMALNKGLELYVIPNGYAGLYNLLNQDRLVRLDEARLDQFQASFAGSEAGHSRVKIKAISNPDKYNRIKVGMKKFDLDALIISGGDDSGSVMIDLNHNGIQCIHCPKTMDLDLQTYSVGGDSTINRIAQFVEDLKTTGRTHNRVLVTEVFGRYAGHTAFRSGVAAEADCILIPEIPVDWDVVYEHIVERFTRRIRQSDVHSGTYTIVVAEGMKNADGTDIVDESAGIDAFGHKKLAGAGKYVCQEIKKRFKTDPRMPQFMKDTGMFVEGIYEIPEVREVHPGHLVRAGHSSAYDINFGFEAGAAAVLLLLEGKTGVTISKVKGRKIEYIEASKAIEQRYVDLDQVAMYESIGTCFGRTPAAYEPILREVDGVYERIY”, the protein production entry is on record as “failed”.

As for “MKKIHLNKWKHKTSLYLMLFCLSLPLALTPLSVSATEKETESEQTAPTSQKDASETTSETQTVESSTNDQNQNNSTISLPESSSTTSLAPSESLTSDSKKLAQKEEVVASTTVAEPKAAASSTISVPDPNLKQTILSTLGLATTAELTQTDMDKLTNLTLNSVDIYSLVGLEHATNLSSIYINVNNKITDFTPLESLTKLTFVTLQTSSLTSDNFPNLTASQGLTNLSIGGTSVDNSVLAKIVNLKALVRLYMDSNMNITNIEPLKVLPNLKSLSVQFCGITDFTVIKDFPIMSDLAAFGQNTGRNDPPTTVTRSSLKYNEDEQSVYIPFSMMPNRMTNFDGYIPPFSTSNSASNTYFDFNGTQLPASRLQIDDNGITINSVSPEEYQGIKSFEYNARLNNPAGTYAVPDGYTFYAISSGTYLHQFDVVDDGAPVTVKYQDENGQELAPSELLNGYVGATYNSKELSFQGYSLIKVDGDATGKFTDSPQTVTYIYQKNAKLLGQVTVKYIDTDGKALFGDVIQTGNIGETYHTEKKELTGYTFKNIIGNASGQYTNSPQTVTYVYEKNANPNKPEEVIPDSSDKNNVNPDSRENETTKGSKTVKDKESVVTSKEKNLPETGDKEQGMKKITLFGSFLLILGSLVLFIRFRKVD”, the protein production entry was “failed”.

As for “MKKIIGLLFIVSCCILLSPTIKVQADTVPLPAPIIEAFPVEAIAEAIAEELDKDSVNDIITQEDLDTITILPFPGLNLTGEDLNVLNNEVFTNATELAIWSNNIGEMPDLSESLPALETIKASDANITQFPNANYPNLTTVDFSKNNFGINIPEFIGMEKLVSINMEQAELSGYIAKDIWMNMPNLETLLLRDNHLISIPEDIFLTGQIRNRSFDGQTATYPPRTIKQGENLDVFVPFIYQALDFIAPAPGNEMIINDNGEFLYKPVYPSYTGSYMYTIETAGLEPGEHLLEISLNYNGSEYLGWYDFPVTITE”, the protein production result is recorded as “failed”.

On to “MKKILGTLLAVLFSFMAINDSAAQNTVLRFNKDGKFKIVQFTDVHFKYGNPASDVALERIGEVLDAEHPDLVIFTGDVVYSSPADKGMLQVLGQVERRHLPFVVTFGNHDNEQGKTRAELYDLIRGVAGNLLPDRGASPSPDYILTMKSSADASKDAALLYCMDSHSYSSLKDVDGYAWLTFGQVSWYRAQSAAYTARNGGKPYPALAFFHIPLPEYNEAAANENAILRGTRMEKACAPQLNTGMFAAMKEAGDVMGVFVGHDHDNDYAVMWKNILLAYGRFTGGNTEYNHLPNGARVIVLNEGTRTFETWIRQKGGVVDSTSYPSDYVKDDWRKR”, for which the protein production entry is listed as “failed”.

For “MKKISILFIFSLILGLFVSEVSAAGPRLKKRPKHVVLVAFDGLSAVAIRNHPMPNFNRLMKEGASTLNNRSILPSSSAPNWASMFTGVGPELHGYTTWGSKTPEIPPFITNQYGRFPGLYGLLRDTHPKAELGYIYEWDGMKYLVDSLAINHFVHAPQTKDHPKGATQFAVNYLKEKKPMYCAVIFEYPDHTGHTYKWESKEYYEKLDELDGYLGEIVAAIEEAGMMDETVIILTADHGGIGTNHGGKTLNEMETPLVFYGKGVKKNYKITESTMVIDVPATEAWLLGVEPHEAWLGNPVTTAFFTK”, the protein production entry was “failed”.

As for “MKKKAALATLAMLPLGVVNAHADGDIGIVTINYLNVRNEPTAESSIAFVAKKDDKVLIKDSSNGWYKIKAESGQEGWASSKYIAKSNSDSLRTSTNKEKQVISNSLNMRNGAGTSYRVITVLKKGQKVEVISESNGWSKIKYDGRLGYVSSSYLGDVSNSTNKSKTKQVNTTSLNVRSGPNTSYGLLGKLPKGSKVEVISESNGWSKIKYNGKDAYVSSMYLSDVSQSNSDNSSQSNDKKNTDKVVNTASLNVRSGPGSTYSKLGKVYKGSKVTVLSESSGWAKINFNNKEAFVVGNYLSTSADTSNNNSNSNYDNSSNSNGNNSSSSGQVNGMSGISGAKIDYKSLSYTLESHISKQVEKAASGGNVIAPSNRKSTPSPEFSTFSAQRTSSFVNASSSDIEYYLNPKNFTNTTKGMMQFLKINSYRDGISESSLNSYLNGLSSSVFKNQGAAFINAAKKYNIDVVYLVSHAMWETAYGKSTLAQGQTLTSYKGQPLSKPVKVYNFFGIGAIDKSANVSGAEAAYSNGWTSVETTIDGSAKWISQNYVNSSKYNQNTIYKMKWNYDYTWHQYATDVNWANGISGIMENLIGLYRGGSSLVFEVPQYK”, the protein production entry was “failed”.

On to “MKKKLDRREAVRSEKKTLPWRKKRSSRGCCWRRRVATAVGEEESRRLMEKTRRDGEEEEVTSDGGSWNGKKKLYRRRRRYLGEETDRLAAEAGEEELRRLLENKRRGREEEERRRRNQIEEEERRRRRK”, for which the protein production entry is reported as “failed”.

In the case of “MKKKNILFFLLCFLLTSLSAQTLEQARGMYGRGQYAEAKPVFQKYVKSQPANGNYNLWYGVCCLKTGNAAEALKYLETAVKKRIPSGQLYLAQTYNDLYRFQDAVDCYEEYIADLSKRKKPTEEAEQLLEKAKGNLRMLKGVEDVCVIDSFVIDKANFLKAYKISEESGKLFTYNDYFKTKGYHPGTVYETEIGNRIYYSEQGEESLNILSKTKMLDEWSQGKPLPGSINASGNANYPYVLSDGVTIYYASDGDGSMGGYDIFVTRYNTNTDTYLVPENVGMPFNSPYNDYMYVIDEYNNLGWFASDRYQPEDKVCIYVFVPNDSKRTYNYEAMEPEKMIELAQLHSLESTWKDSKIVDDARQRLEAVINHKPAVEQNFDFEFIIDDHSTYHHLTDFKSPKAKQLYLKYEQMEKDYRQQTGKLKSQREGFARSNKDEQSKMAPAIRDLEKRVLQMSEELDKQAIEVRNAEKQNLK”, the protein production entry was “failed”.
